According to patent US20230265192A1 (GIGAGEN, published 2023):
Residue numbers refer to the chain shown, from its start.

B1: Ipilimumab analog (antibody, V domains shown)
VH: QVQLVESGGGVVQPGRSLRLSCAASGFTFSSYTMHWVRQAPGKGLEWVTFISYDGNNKYYADSVKGRFTISRDNSKNTLYLQMNSLRAEDTAIYYCARTGWLGPFDYWGQGTLVTVSS
VL: not shown
notes: also called ipi analog; in-house produced ipilimumab
B2: antibody A11 (L11H11) (antibody, V domains shown)
VH: QVQLVESGGGVVQPGRSLRLSCAASGFTFSSYGMHWVRQAPGKGLEWVAVIWYDVGNKYYIDSVKGRFTISRDNSKNTLYLQMNSLRAEDTAVYYCARDYYGSGSPRHFDYWGQGTLVTVSS
VL: DIQLTQSPSFLSASVGDRVTITCRASQGISSYLAWYQQKPGKAPKLLIYAASTLQSGVPSRFSGSGSGTEFTLTISSLQPEDFATYYCQQLNSYPPTFGQGTKVEIK
notes: also called aCTLA-4.31
B3: antibody A15 (L15H15) (antibody, V domains shown)
VH: QVQLVESGGGVVQPGRSLRLSCAASGFTFRSYGMHWVRQAPGKGLEWVAVIWYDGSNKHYADSVKGRFTISRDNSKNTLYLQMNSLRAEDTAVYYCARNGLIGAFDIWGQGTMVTVSS
VL: not shown
notes: also called aCTLA-4.18
B4: antibody A16 (L16H16) (antibody, V domains shown)
VH: B3 VH with R30S, M34I, H59Y, N99G, G100S, I102L, A104P, I107Y, M113L
VL: B2 VL with L4M, F10S, S31N, A43V, E70D, F83V, Q90N, L91Y, Y94A, P96W
notes: also called aCTLA-4.5
B5: antibody A17 (L17H17) (antibody, V domains shown)
VH: EVQLVESGGGLVQPGGSLRLSCAASGFTFSNYAMSWVRQAPGKGLEWVSAISGGGLSTYYADSVKGRFTISRDNSKNTLYLQMNSLRAEDTAVYYCAKDLLWLGFDYWGQGTLVTVSS
VL: DIQMTQSPSSLSASVGDRVTITCRASQAIRNDLGWYQQKPGKAPKRLIYAASSLQSGVPPRFSGSGSGTEFTLTISSLQPEDFATYYCLQHNSYPLTFGGGTKVEIK
notes: also called aCTLA-4.17
B6: antibody A14 (L14H14), GIGA-564 (antibody, V domains shown)
VH: QVQLVESGGGVVQPGRSLRLSCAASGFTFSSYGMHWVRQAPGTGLEWVAVIWYEGRNKYYADPVKGRFTISRDNSKNTLYLQMNSLRDDDTAVYYCARAGDLGAFDIWGQGTMVTVSSA
VL: not shown
notes: also called aCTLA-4.15
B7: antibody A12 (L12H12) (antibody, V domains shown)
VH: B3 VH with R30S, H59Y, I70F, N99G, I102M, I107Y, M113L
VL: not shown
notes: also called aCTLA-4.12; CTLA4.A12
B8: antibody A18 (L18H18) (antibody, V domains shown)
VH: B3 VH with R30S, H59F, R72S, N99G, L101H, I102L, A104S, I107Y, M113L
VL: EIVLTQSPGTLSLSPGERATLSCRASQSVSYLAWYQQKPGQAPRLLIYGASSRATGIPDRFSGSGSGTDFTLTISRLEPEDFAVYYCQQYGSSPWTFGQGTKVEIK
notes: also called aCTLA-4.11
B9: antibody A26 (L26H26) (antibody, V domains shown)
VH: QVQLVQSGAEVKKPGASVKVSCKASDYTFTYYGISWVRQAPGQGLEWMGWISAYNGNTNYAQKLQGRVTMTTDTSTNTAYLELRSLRSDDTAVYYCARDYYDSSGYFDYWGQGTLVTVSS
VL: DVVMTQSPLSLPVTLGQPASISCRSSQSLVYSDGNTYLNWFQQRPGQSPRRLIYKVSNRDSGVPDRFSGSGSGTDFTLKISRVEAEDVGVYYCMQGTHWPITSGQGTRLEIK
notes: also called aCTLA-4.20
B10: antibody A21 (L21H21) (antibody, V domains shown)
VH: QVQLVESGGGVVQPGRSLRLSCAASGFTFSSYGMHWVRQAPGKGLEWVAVIWYDGNNKYYADSVKGRFTISRDNSKNTLYLHMNSLRADDTAVYYCARMLRGAPYYYGMDVWGQGTTVTVSS
VL: not shown
notes: also called aCTLA-4.10
B11: antibody A27 (L27H27) (antibody, V domains shown)
VH: QVQLVQSGAEVKKPGASVKVSCKASGYTFTSYGISWVRQAPGQGLEWMGWISAYNGNTNYAQKLQGRVTMTTDTSTSTAYMELRSLRSDDTAVYYCGRWVRGVEYWGQGTLVTVSS
VL: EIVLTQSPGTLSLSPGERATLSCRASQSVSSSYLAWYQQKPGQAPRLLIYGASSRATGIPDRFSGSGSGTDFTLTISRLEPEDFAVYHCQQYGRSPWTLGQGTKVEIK
notes: also called aCTLA-4.8

What follows are binders tested against mouse CTLA-4 (mouse, UniProt P09793 36-161, limits assumed) (assay: BLI (Octet)).
Protocol: (§1) The binding specificity and affinity of each full-length antibody towards CTLA-4 were determined using biolayer interferometry (BLI) and/or surface plasmon resonance (SPR). Anti-cyno CTLA-4 and anti-mouse CTLA-4 affinities were tested using ForteBio (BLI). Anti-human CTLA-4 affinities were measured using Carterra (SPR).
(§2) For BLI, antibodies were loaded onto an Anti-Human IgG Fc (AHC) biosensor using the Octet Red96 system (ForteBio). Loaded biosensors were dipped into antigen dilutions beginning at 300 nM, with 6 serial dilutions at 1:3. Kinetic analysis was performed using a 1:1 binding model and global fitting.

mouse CTLA-4, sequence (P09793 36-161 limits assumed): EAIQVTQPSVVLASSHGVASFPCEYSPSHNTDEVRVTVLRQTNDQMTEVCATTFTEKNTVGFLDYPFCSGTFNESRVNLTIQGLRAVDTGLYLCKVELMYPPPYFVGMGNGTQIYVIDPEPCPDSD

binding result | Binder
no binding (tested: 300 nM) | B1
no binding (tested: 300 nM) | B2

These binders were tested against T1, His-tagged cynomolgus CTLA-4 (CT4-C5227; Acro Biosystems) (cynomolgus, UniProt G7PL88 36-161) (assay: BLI (Octet)).
T1 construct: also called soluble cynomolgus CTLA-4; cyno CTLA-4
Protocol: as §1, §2

T1 sequence (G7PL88 entry or part of it limits assumed, form in doubt): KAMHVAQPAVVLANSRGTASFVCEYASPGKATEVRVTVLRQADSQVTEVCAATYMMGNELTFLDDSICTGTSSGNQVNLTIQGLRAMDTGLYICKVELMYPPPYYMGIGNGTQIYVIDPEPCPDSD

Kd [nM] | Binder
2.6 | B3
2.8 | B4
6.3 | B5
1.6 | B2

Each binder was assayed against T2, human CTLA-4 expressed on the cell surface (human, UniProt P16410 36-223) (assay: flow cytometry, 10 µg/mL mAb, geometric MFI).
T2 construct: CHO cells stably expressing human CTLA-4; also called hCTLA-4; CTLA-4+ CHO cells
Protocol: (§3) Table 23. In vitro characterization of scFvs reformatted as full-length antibodies. kon, koff, and KD of the indicated CTLA-4 mAbs for soluble human CTLA-4 was determined by SPR (Carterra). Geometric MFI of the indicated CTLA-4 mAbs bound to CTLA-4⁺ or CD27⁺ CHO cells as detected by a secondary human IgG antibody and flow cytometry. Affinity (KD) of the indicated CTLA-4 mAbs for soluble cynomolgus CTLA-4 was determined by a single antigen concentration BLI measurement (Octet). […] Due to constraints on sample size in each Promega bioassay kit, this set of aCTLA-4 mAbs was analyzed using multiple plates (plate letters correspond to Plate A-D in FIG. 20D).
(§4) To determine if the CTLA-4 mAbs bound the appropriate antigen expressed on the surface of mammalian cells, CHO cell lines stably expressing human CTLA-4 or an irrelevant antigen (CD27) were generated. Cells (0.5×10⁶ each cell line) were combined and washed with MACS buffer (Dulbecco's Phosphate Buffered Saline [DPBS], with 0.5% bovine serum albumin [BSA], and 2 mM ethylenediaminetetraacetic acid [EDTA]). The cells were incubated with 10 μg/mL anti-CTLA-4 for 30 min at 4° C., then excess, unbound mAbs were removed by washing twice with MACS buffer. The cells were then stained with PE-conjugated anti-Human IgG Fc antibody (clone M1310G05, BioLegend 410720, San Diego, Calif., USA) to detect bound anti-CTLA-4 and with fluorescein isothiocyanate (FITC)-conjugated anti-CD27 (clone 0323, BioLegend 302806, San Diego, Calif., USA) to distinguish the cells expressing the irrelevant antigen. Cells were washed twice with MACS buffer, fixed with 4% paraformaldehyde fixation buffer (BioLegend 420801, San Diego, Calif., USA) for 20 minutes at room temperature and washed twice more with MACS buffer.

T2 sequence (P16410 36-223 limits assumed): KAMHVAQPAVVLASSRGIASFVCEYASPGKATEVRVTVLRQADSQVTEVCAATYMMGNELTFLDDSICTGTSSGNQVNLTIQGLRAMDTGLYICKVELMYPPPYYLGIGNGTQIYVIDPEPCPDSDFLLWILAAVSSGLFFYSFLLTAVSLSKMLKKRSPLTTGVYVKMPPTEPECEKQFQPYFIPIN

MFI of CTLA-4+ CHO cells | Binder
717 | B6

These binders were tested against T3, CD27 on CHO cells (UniProt P26842 20-260, limits assumed) (assay: flow cytometry, 10 µg/mL mAb, geometric MFI).
T3 construct: whole, on cells; also called CD27+ CHO cells; irrelevant antigen (CD27)
Protocol: as §3, §4

T3 sequence (P26842 20-260 limits assumed): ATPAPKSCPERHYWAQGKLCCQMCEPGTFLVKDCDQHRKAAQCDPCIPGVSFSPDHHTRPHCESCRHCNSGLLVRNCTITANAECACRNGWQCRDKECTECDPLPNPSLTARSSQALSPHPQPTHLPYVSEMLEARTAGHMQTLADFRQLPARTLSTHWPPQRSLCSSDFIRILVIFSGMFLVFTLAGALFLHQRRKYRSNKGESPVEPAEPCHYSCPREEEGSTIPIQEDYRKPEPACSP

MFI of CD27+ CHO cells | Binder
17.1 | B7
14.8 | B8
15.9 | B6

These binders were tested against T3, CD27 on CHO cells (assay: flow cytometry, mixed CTLA-4+ and CD27+ CHO cells).
Protocol: To determine if the CTLA-4 mAbs bound the appropriate antigen expressed on the surface of mammalian cells, CHO cell lines stably expressing human CTLA-4 or an irrelevant antigen (CD27) were generated. Cells (0.5×10⁶ each cell line) were combined and washed with MACS buffer (Dulbecco's Phosphate Buffered Saline [DPBS], with 0.5% bovine serum albumin [BSA], and 2 mM ethylenediaminetetraacetic acid [EDTA]). The cells were incubated with 10 μg/mL anti-CTLA-4 for 30 min at 4° C., then excess, unbound mAbs were removed by washing twice with MACS buffer. The cells were then stained with PE-conjugated anti-Human IgG Fc antibody (clone M1310G05, BioLegend 410720, San Diego, Calif., USA) to detect bound anti-CTLA-4 and with fluorescein isothiocyanate (FITC)-conjugated anti-CD27 (clone 0323, BioLegend 302806, San Diego, Calif., USA) to distinguish the cells expressing the irrelevant antigen. Cells were washed twice with MACS buffer, fixed with 4% paraformaldehyde fixation buffer (BioLegend 420801, San Diego, Calif., USA) for 20 minutes at room temperature and washed twice more with MACS buffer. […] Binding of mAbs to CTLA-4 on the cell surface was determined using LSR II (BD Biosciences, San Jose, Calif., USA) or CytoFLEX LX (Beckman Coulter, Brea. Calif., USA) flow cytometers and analyzed using FlowJo (v10.6.1, BD Biosciences, San Jose, Calif., USA).

binding result | Binder
no binding (tested: 10 µg/mL) | B7
no binding (tested: 10 µg/mL) | B8
no binding (tested: 10 µg/mL) | B6

What follows are binders tested against T4, His-tagged human CTLA-4 (CT4-H5229; Acro Biosystems) (human, UniProt P16410 36-161) (assay: SPR (Carterra)).
T4 construct: bought soluble protein; also called soluble human CTLA-4; recombinant human CTLA-4; not shown: His tag
Protocol: (§5) Then, goat anti-Human IgG Fc (Southern Biotech 2047-01) was coupled for 10 minutes at […] in 10 mM Sodim Acetate pH 4.5 (Carterra Inc.). The surface was then deactivated with 1 M ethanolamine pH 8.5 (Carterra Inc.). Running buffer used for the lawn immobilization was HBS-EPC (10 mM HEPES, 150 mM NaCl, 3 mM EDTA, 0.05% Tween 20, pH 7.4; Teknova).
(§6) The sensor chip was then transferred to a continuous flow microspotter (CFM; Carterra Inc.) for array capturing. The mAb supernatants were diluted 50-fold ([…] final concentration) into HBS-EPC with 1 mg/mL BSA. The samples were each captured twice with 15-minute and 4-minute capture steps on the first and second prints, respectively, to create multiple densities, using a […] flow rate. The running buffer in the CFM was also HBS-EPC.
(§7) Next, the sensor chip was loaded onto an SPR reader (MX-96 system; Ibis Technologies) for the kinetic analysis. CTLA-4 was injected at five increasing concentrations in a four-fold dilution series with concentrations of 1.95, 7.8, 31.25, 125, and 500 nM in running buffer (HBS-EPC with 1.0 mg/mL BSA). CTLA-4 injections were 5 minutes with a 15-minute dissociation at […] in a non-regenerative kinetic series. An injection of the goat anti-Human IgG Fc capture antibody at […] was injected at the end of the series to verify the capture level of each mAb. Binding data was double referenced by subtracting an interspot surface and a blank injection and analyzed for ka (on-rate), kd (off-rate), and KD (affinity) using the Kinetic Interaction Tool software (Carterra Inc.).

T4 sequence (P16410 36-161 limits assumed): as the sequence (G7PL88 entry or part of it limits assumed, form in doubt) above, with N14S, T18I, M106L counted along it

Kd [nM] | koff [s⁻¹] | kon [M⁻¹ s⁻¹] | Binder
74 | 0.00026 | 3500 | B9
10 | 0.00073 | 70000 | B3
23 | 0.00072 | 31000 | B4
51 | 0.0034 | 66000 | B5
31 | 0.00055 | 18000 | B10
120 | 0.0036 | 31000 | B11
7.5 | 0.00035 | 47000 | B2

What follows are binders tested against T2, human CTLA-4 expressed on the cell … (assay: cell-based or functional assay).

Promega assay % inhibition [%] | Promega assay antagonist (EC50, ug/mL) [µg/mL] | Binder
0 | – | B3
0 | – | B4
0 | – | B5
26.6 | 0.42 | B2

Molecular target: T4, His-tagged human CTLA-4 (CT4-H5229; …)
Experiment: SPR (Carterra)
Remark: another data set of the same source
Protocol: as §5, §6, §7

Kd [nM] | Binder
74 | B9
10 | B3
23 | B4
51 | B5
31 | B10
120 | B11
7.5 | B2
